Measured values as given in US11918683B2, “Treatment of immune diseases by administration of antigen-specific formulations” (Allero Therapeutics B.V., priority 2017, dated 2024).
Ends that are not written are not given here.

B1: OVA: intact, LPS-free OVA grade V protein (ovalbumin) used as antigen (protein, UniProt P01012 2-386, looked up)
Ovalbumin: GSIGAASMEFCFDVFKELKVHHANENIFYCPIAIMSALAMVYLGAKDSTRTQINKVVRFDKLPGFGDSIEAQCGTSVNVHSSLRDILNQITKPNDVYSFSLASRLYAEERYPILPEYLQCVKELYRGGLEPINFQTAADQARELINSWVESQTNGIIRNVLQPSSVDSQTAMVLVNAIVFKGLWEKAFKDEDTQAMPFRVTEQESKPVQMMYQIGLFRVASMASEKMKILELPFASGTMSMLVLLPDEVSGLEQLESIINFEKLTEWTSSNVMEERKIKVYLPRMKMEEKYNLTSVLMAMGITDVFSSSANLSGISSAESLKISQAVHAAHAEINEAGREVVGSAEAGVDAASVSEEFRADHPFLFCIKHIATNAVLFFGRCVSP
B2: Ovm: Ovm protein (ovomucoid) used as antigen (protein, UniProt P01005 25-210, looked up)
Ovomucoid: AEVDCSRFPNATDKEGKDVLVCNKDLRPICGTDGVTYTNDCLLCAYSIEFGTNISKEHDGECKETVPMNCSSYANTTSEDGKVMVLCNRAFNPVCGTDGVTYDNECLLCAHKVEQGASVDKRHDGGCRKELAAVSVDCSEYPKPDCTAEDRPLCGSDNKTYGNKCNFCNAVVESNGTLTLSHFGKC

Experiments:
Foxp3 = Foxp3 expression within CD4+ T cell population by FACS; assay type: cell-based, NOD AB° DQ8 transgenic mice; details: spleen
Description: Flow cytometric analysis: spleens and cervical lymph node tissue of SLIT treated mice were isolated, prepared as described above and stained for CD4, CD25 and Foxp3. Intracellular staining was performed for Foxp3 according to the manufacturer's instructions (eBiosciences) and subsequently measured using flow cytometry on a Becton Dickinson FACSCaliburs. Cells were gated on CD4^+CD25^+ and CD4^+CD25^− subpopulations and within these populations Foxp3 histograms were used to determine Mean Fluorescence Intensity (MFI).
T-cell phenotyping: CD4 and CD25 antibodies were purchased from BD Biosciences, and APC anti-Foxp3 staining kits were purchased from eBiosciences. Anti-IL-10 neutralizing monoclonal antibody (1 μg/mL, clone JES052A5), TGF-β neutralizing monoclonal antibody (1 μg/mL, clone 1D11) and LAP (latency associated peptide) neutralizing antibodies (1 μg/mL, clone 27235) were obtained from R&D systems.

[1] = test system: NOD AB° DQ8 transgenic mice; assay: Antigen-specific DTH response (ear swelling) after SLIT; assay type: in vivo; details: 10 μg DQ8d in ear, 24 hours, compared to PBS
[2] = test system: OVA- or Ovm-sensitized piglets; assay: Piglet food allergy model, oromucosal PSF patch treatment; assay type: in vivo, Landrace-Yorkshire piglets; details: oromucosal once weekly for 6 weeks
[3] = test system: OVA- or HDM-sensitized mice; assay: Sublingual immunotherapy (SLIT) mouse model; assay type: in vivo, BALB/cByJ mice; details: sublingual 5 days a week for 8 weeks
Description: Antigen: naturally purified Der p1 and 2 in a 50:1 ratio was purchased from Citeq or intact, LPS-free OVA grade V protein (Sigma Aldrich) was used as antigen in all experiments. Animals: BALB/cByJ mice were purchased from Charles River Laboratories at an age of 6 to 8 weeks and housed in individually ventilated cages (IVC). Sensitization of mice: all mice received intraperinoneal injections on day 1 and 15 of 5 μg crude extract […]) or 25 μg OVA adsorbed to 2.25 mg Alum (Imject, Pierce) in 100 μL PBS. […] Hereafter, airway responsiveness was determined, and bronchoalveolar lavage fluid (BALF), lungs, and blood were collected and stored for analyses. Measurement of airway hyperreactivity to methacholine: airway hyperresponsiveness (AHR) was assessed by measuring airway resistance (R in cmH2O.s/mL) and lung compliance (C in mL/H2O) in response to intravenous administration of increasing doses of methacholine (Sigma-Aldrich). The AHR was expressed as the effective dose of methacholine required to induce a R of 3 cmH2O.s/mL (ED3). […] ELISA determined the concentrations of IL-5, IL-10, IL-13 and IFN-γ, according to the manufacturer's instructions (BD Pharmingen). […]

Molecule | number of Foxp3 CD4+ T cells (Foxp3) | DTH response (ear swelling) [1] | AHR [2] | AHR [3]
deaminated DQ8d peptide GAPVPYPDPLEPRQYPSGEGSFQPSQENPQA (also: deaminated (sites not given here)) [deaminated gliadin peptide antigen] | did not show a significant increase | slight reduction | – | –
B1 | – | – | only a moderate effect | only a moderate effect
B2 | – | – | only a moderate effect | –
